From patent publication US20230270832A1 (TSCAN THERAPEUTICS, published 2023)

B1: MAGEA1 TCR 32-39 (TCR, V domains shown)
V domain 1: DQQVKQNSPSLSVQEGRISILNCDYTNSMFDYFLWYKKYPAEGPTFLISISSIKDKNEDGRFTVFLNKSAKHLSLHIVPSQPGDSAVYFCAASAQNNDMRFGAGTRLTVKP
V domain 2: NAGVMQNPRHLVRRRGQEARLRCSPMKGHSHVYWYRQLPEEGLKFMVYLQKENIIDESGMPKERFSAEFPKEGPSILRIQQVVRGDSAAYFCASSPSYEQYFGPGTRLTVTE
B2: MAGEA1 TCR 32-41 (TCR, V domains shown)
V domain 1: QLLEQSPQFLSIQEGENLTVYCNSSSVFSSLQWYRQEPGEGPVLLVTVVTGGEVKKLKRLTFQFGDARKDSSLHITAAQPGDTGLYLCAGDESISYGKLTFGQGTILTVHP
V domain 2: DAGVIQSPRHEVTEMGQEVTLRCKPISGHDYLFWYRQTMMRGLELLIYFNNNVPIDDSGMPEDRFSAKMPNASFSTLKIQPSEPRDSAVYFCASSFLGWNEKLFFGSGTQLSVLE

Legend:
… (10) = … (10) (Homo sapiens, UniProt C*07:02); assay: cell-based or functional assay
[1] = molecular target: MAGEA1 peptide VRFFFPSL (SEQ ID NO: 1) presented by HLA-C*07:02 (human); assay: cell-based or functional assay

Row | Binder | EC50 (read off the curve) [left panel '4hr Killing (IFP)'] (… (10)) [ng/mL] | EC50 [table, row MAGEA1, column Peptide EC50] [1] [pM]
1 | B1 | ~8 | –
2 | B2 | – | ~250
